Values joined by “and” are separate entries in the source; they are usually repeats but may differ in a detail not shown here. Identical values can stand only once.
Details: Thermal, reversible: yes
[1] = Methanobacterium formicicum, pH 2, DSC, glycine 25 mM, KCl 1.0 M
[2] = Methanobacterium formicicum, pH 3, DSC, glycine 25 mM, KCl 1.0 M
[3] = Methanobacterium formicicum, pH 4, DSC, glycine 25 mM, KCl 0.2 M
[4] = Methanobacterium formicicum, pH 4, DSC, glycine 25 mM, KCl 1.0 M
[5] = Methanobacterium formicicum, pH 5, DSC, acetate 25 mM, KCl 0.2 M
[6] = Methanobacterium formicicum, pH 5, DSC, acetate 25 mM, KCl 1.0 M
[7] = Methanobacterium formicicum, pH 6, DSC, MES 25 mM, KCl 0.2 M
[8] = Methanobacterium formicicum, pH 6, DSC, MES 25 mM, KCl 1.0 M
[9] = Methanothermus fervidus, pH 3, DSC, glycine 25 mM, KCl 0.2 M
[10] = Methanothermus fervidus, pH 4, DSC, glycine 25 mM, KCl 0.2 M
[11] = Methanothermus fervidus, pH 5, DSC, acetate 25 mM, KCl 0.2 M
[12] = Methanothermus fervidus, pH 6, DSC, MES 25 mM, KCl 0.2 M

Archaeal histone B wild type, O59627, sequence (O59627 whole entry): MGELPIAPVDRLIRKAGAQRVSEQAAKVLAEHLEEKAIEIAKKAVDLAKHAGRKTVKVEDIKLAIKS
Archaeal histone A1 wild type, P48782, sequence (P48782 whole entry): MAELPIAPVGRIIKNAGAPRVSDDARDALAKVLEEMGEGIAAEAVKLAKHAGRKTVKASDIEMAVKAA
DNA-binding protein HMf-1 wild type, P48781, sequence (P48781 whole entry): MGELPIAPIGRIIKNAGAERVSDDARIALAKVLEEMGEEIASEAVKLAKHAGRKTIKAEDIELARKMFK

Archaeal histone A1 wild type, P48782
Tm (Methanobacterium formicicum, pH 2, CD, glycine 25 mM, KCl 1.0 M): 60.3 °C
Tm [1]: 64.7 °C
unfolding enthalpy (calorimetric) [1]: 10.5 kcal/mol
unfolding enthalpy (van 't Hoff) [1]: 115 kcal/mol
Tm (Methanobacterium formicicum, pH 3, CD, glycine 25 mM, KCl 1.0 M): 73 °C
Tm [2]: 77 °C
unfolding enthalpy (calorimetric) [2]: 35.4 kcal/mol
unfolding enthalpy (van 't Hoff) [2]: 109 kcal/mol
Tm (Methanobacterium formicicum, pH 4, CD, glycine 25 mM, KCl 1.0 M): 91.5 °C
Tm [3]: 75.6 °C
unfolding enthalpy (calorimetric) [3]: 45.6 kcal/mol
unfolding enthalpy (van 't Hoff) [3]: 91.1 kcal/mol
Tm [4]: 90.3 °C
unfolding enthalpy (calorimetric) [4]: 47.1 kcal/mol
unfolding enthalpy (van 't Hoff) [4]: 129 kcal/mol
Tm (Methanobacterium formicicum, pH 5, CD, acetate 25 mM, KCl 0.2 M): 74.8 °C
Tm (Methanobacterium formicicum, pH 5, CD, acetate 25 mM, KCl 1.0 M): 92 °C
Tm [5]: 76.9 °C
unfolding enthalpy (calorimetric) [5]: 36.9 kcal/mol
unfolding enthalpy (van 't Hoff) [5]: 114 kcal/mol
Tm [6]: 90.9 °C
unfolding enthalpy (calorimetric) [6]: 41 kcal/mol
unfolding enthalpy (van 't Hoff) [6]: 124 kcal/mol
Tm (Methanobacterium formicicum, pH 6, CD, MES 25 mM, KCl 0.2 M): 70.9 °C
Tm [7]: 76.5 °C
unfolding enthalpy (calorimetric) [7]: 63.9 kcal/mol
unfolding enthalpy (van 't Hoff) [7]: 94.9 kcal/mol
Tm [8]: 90.5 °C
unfolding enthalpy (calorimetric) [8]: 50.4 kcal/mol
unfolding enthalpy (van 't Hoff) [8]: 122 kcal/mol

Archaeal histone B wild type, O59627
Tm (Pyrococcus furiosus (strain ATCC 43587 / DSM 3638 / JCM 8422 / Vc1), pH 4, CD, glycine 25 mM, KCl 0.2 M): 107 °C
Tm (Pyrococcus furiosus (strain ATCC 43587 / DSM 3638 / JCM 8422 / Vc1), pH 5, CD, acetate 25 mM, KCl 0.2 M): 114 °C
Tm (Pyrococcus furiosus (strain ATCC 43587 / DSM 3638 / JCM 8422 / Vc1), pH 7.5, CD, phosphate 25 mM, KCl 0.2 M): 110 °C

DNA-binding protein HMf-1 wild type, P48781
Tm (Methanothermus fervidus, pH 2, CD, glycine 25 mM, KCl 1.0 M): 94 °C
Tm (Methanothermus fervidus, pH 2.5, CD, glycine 25 mM, KCl 0.2 M): 78.2 °C
Tm (Methanothermus fervidus, pH 2.7, CD, glycine 25 mM, KCl 0.2 M): 84.9 °C
Tm (Methanothermus fervidus, pH 3, CD, glycine 25 mM, KCl 0.2 M): 84.6 °C and 89.3 °C
Tm (Methanothermus fervidus, pH 3, CD, glycine 25 mM, KCl 1.0 M): 101 °C
Tm [9]: 96.1 °C
unfolding enthalpy (calorimetric) [9]: 14.1 kcal/mol
unfolding enthalpy (van 't Hoff) [9]: 139 kcal/mol
Tm (Methanothermus fervidus, pH 3.3, CD, glycine 25 mM, KCl 0.2 M): 94.1 °C
Tm (Methanothermus fervidus, pH 3.7, CD, glycine 25 mM, KCl 0.2 M): 103 °C
Tm (Methanothermus fervidus, pH 4, CD, glycine 25 mM, KCl 0.2 M): 100 °C and 103 °C
Tm [10]: 97.6 °C
unfolding enthalpy (calorimetric) [10]: 41.3 kcal/mol
unfolding enthalpy (van 't Hoff) [10]: 158 kcal/mol
Tm [11]: 104 °C
unfolding enthalpy (calorimetric) [11]: 37.3 kcal/mol
unfolding enthalpy (van 't Hoff) [11]: 164 kcal/mol
Tm [12]: 101 °C
unfolding enthalpy (calorimetric) [12]: 44.5 kcal/mol
unfolding enthalpy (van 't Hoff) [12]: 158 kcal/mol
